± gives the uncertainty stated by the source.
B1: POU domain, class 4, transcription factor 3, residues 185 to 256; numbered along this chain, Q15319 (parent)
chain: RELEAFAERFKQRRIKLGVTQADVGAALANLKIPGVGSLSQSTICRFESLTLSHNNMIALKPVLQAWLEEAE

Variants of: B1
Assay: abundance fitness (aPCA) (normalised: wild type 0, dead -1); higher = more abundant; growth selection in yeast, the domain comes from the species named
Conditions: Homo sapiens

| Variant | abundance fitness |
| --- | --- |
| R14N | -1.02 ± 0.25 |
| R14A | -1.1 ± 0.18 |
| R14F | -1.11 ± 0.22 |
| R14S | -1.06 ± 0.12 |
| I58Y | -0.123 ± 0.082 |
| I58P | -1.06 ± 0.26 |
| L31V | 0.086 ± 0.12 |
| L31F | -0.034 ± 0.14 |
| L31C | 0.352 ± 0.23 |
| L31E | 0.143 ± 0.37 |
| L31G | -0.59 ± 0.42 |
| L31T | -0.094 ± 0.48 |
| G18Y | -0.928 ± 0.29 |
| G18T | -0.884 ± 0.2 |
| G18V | -0.997 ± 0.15 |
| G18W | -1.05 ± 0.2 |
| G18R | -0.249 ± 0.11 |
| G18E | -0.514 ± 0.14 |
| G18K | -0.296 ± 0.15 |
| A5Q | 0.08 ± 0.15 |
| A5G | -0.033 ± 0.085 |

| Variant | abundance fitness |
| --- | --- |
| A5F | -0.605 ± 0.21 |
| A5W | -0.379 ± 0.14 |
| A5V | -0.051 ± 0.096 |
| I33L | 0.062 ± 0.045 |
| I33F | -0.223 ± 0.088 |
| I33N | -0.341 ± 0.16 |
| I33T | -0.197 ± 0.14 |
| I15Q | -0.321 ± 0.12 |
| I15V | -0.098 ± 0.055 |
| I15G | -0.423 ± 0.14 |
| I15Y | -0.32 ± 0.086 |
| I15E | -0.067 ± 0.079 |
| I15F | -0.32 ± 0.078 |
| I15N | -0.147 ± 0.13 |
| I15P | -0.915 ± 0.36 |
| G37D | -0.093 ± 0.15 |
| G37M | -0.153 ± 0.18 |
| G37R | -0.063 ± 0.054 |
| G37A | -0.127 ± 0.053 |
| A22C | -0.264 ± 0.051 |
| A22R | -0.087 ± 0.037 |

| Variant | abundance fitness |
| --- | --- |
| A22Y | -0.115 ± 0.052 |
| A22T | -0.207 ± 0.054 |
| A22I | -0.5 ± 0.053 |
| A22H | -0.107 ± 0.073 |
| A22S | -0.064 ± 0.035 |
| V24T | -0.565 ± 0.035 |
| V24M | -0.301 ± 0.041 |
| V24Q | -0.825 ± 0.075 |
| V24P | -0.842 ± 0.044 |
| V24C | -0.223 ± 0.046 |
| V24F | -0.709 ± 0.036 |
| V24D | -0.675 ± 0.2 |
| V24R | -0.83 ± 0.038 |
| V24S | -0.785 ± 0.041 |
| S40A | -0.222 ± 0.07 |
| S40I | -0.664 ± 0.38 |
| S40L | -0.488 ± 0.082 |
| A7H | -0.707 ± 0.099 |
| A7F | -0.649 ± 0.1 |
| A7N | -0.927 ± 0.27 |
| A7K | -0.398 ± 0.2 |

| Variant | abundance fitness |
| --- | --- |
| A7D | -0.953 ± 0.22 |
| Q65S | -0.127 ± 0.3 |
| Q65H | -0.076 ± 0.2 |
| Q65R | -0.252 ± 0.16 |
| E69K | -0.041 ± 0.05 |
| E69W | -0.232 ± 0.048 |
| E69L | -0.097 ± 0.027 |
| E69V | -0.046 ± 0.037 |
| V36Q | -0.261 ± 0.16 |
| V36N | -0.234 ± 0.32 |
| T51S | 0.056 ± 0.059 |
| T51F | -0.578 ± 0.31 |
| T51H | -0.201 ± 0.21 |
| T51L | -0.13 ± 0.056 |
| S49D | 0.067 ± 0.071 |
| S49P | -0.957 ± 0.14 |
| S49M | -0.117 ± 0.11 |
| S49Q | -0.027 ± 0.075 |
| S49A | 0.016 ± 0.065 |
| K11Y | -0.474 ± 0.077 |
| K11S | -0.208 ± 0.054 |
